Results: patent US20030129189A1, “Tumor necrosis factor-gamma” (priority 1994, published 2003)
Read-outs that look alike come from different tables or passages of the source.

Columns and labels:
[1] = biological target: T1, TNF-gamma-beta (Homo sapiens, UniProt O95150); assay: Inhibition of TNF-gamma-beta activation of NF-κB in 293T cells; format: cell-based
T1 construct: made in house; host or cells: E. coli (untagged) or 293T (FLAG-tagged)
T1 sequence (O95150 72-251): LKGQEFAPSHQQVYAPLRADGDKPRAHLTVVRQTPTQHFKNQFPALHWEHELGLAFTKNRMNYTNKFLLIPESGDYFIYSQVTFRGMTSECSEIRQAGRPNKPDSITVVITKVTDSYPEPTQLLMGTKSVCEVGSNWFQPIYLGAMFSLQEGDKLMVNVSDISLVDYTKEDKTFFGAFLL
Method: To avoid spontaneous apoptosis or NF-κB activation accompanied with DR3 overexpression, a limited amount of DR3-expression DNA that by itself minimally activated these pathways was used.
293T cells were transiently transfected using LipofectAMINE and PLUS reagents according to the manufacturer's instruction (Invitrogen). For reporter assays, 293T cells, at 5×10^5 cells/well, were seeded in 6-well plates and transfected with a total of 1 microgram of DNA. pC4 DNA was used as filler DNA. Conditioned supernatant was collected 24 hr post-transfection and assayed for secreted alkaline phosphatase (SEAP) activity using the Phospha-Light™ chemiluminescent reporter gene assay system (Tropix). pCMV-lacZ was used as internal control for transfection efficiency normalization.

[2] = system: HUVEC cells; assay: Induction of TNF-gamma-beta mRNA in HUVEC cells; format: cell-based, human; conditions: for time of peak in expression of TNF-gamma-beta mRNA: after treatment; for TNF-gamma-beta mRNA level: stimulated HUVEC cells
Method: More TNF-gamma-beta mRNA was detected than that of TNF-gamma-alpha using both methods.
Total RNA was isolated from human cell lines and primary cells using TriZOL (Invitrogen). TaqMan was carried out in a 25 μl reaction containing 25 ng of total RNA, 0.6 μM each of gene-specific forward and reverse primers and 0.2 μM of gene-specific fluorescence probe. […] Gene-specific PCR products were measured using an ABI PRISM 7700 Sequence Detection System following the manufacturer's instruction (PE Corp.).

[3] = biological target: T2, full length TNF-gamma-beta on the cell surface (HEK293F stable transfectants; transfected cells) (human, UniProt O95150 1-251); assay: flow cytometry on HEK293F cells expressing full length TNF-gamma-beta
T2 construct: also called TNF-gamma-beta expressing cells
T2 sequence: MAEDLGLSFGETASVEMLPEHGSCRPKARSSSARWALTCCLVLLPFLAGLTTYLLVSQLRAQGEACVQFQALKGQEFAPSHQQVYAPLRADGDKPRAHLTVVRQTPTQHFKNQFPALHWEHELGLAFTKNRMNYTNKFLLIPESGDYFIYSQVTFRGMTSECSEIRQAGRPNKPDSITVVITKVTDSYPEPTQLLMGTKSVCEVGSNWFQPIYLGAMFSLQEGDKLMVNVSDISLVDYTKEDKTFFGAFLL
Method: TR6 has been previously described as a decoy receptor (Pitti et al., Nature 396:699-703 (1998); Yu et al., J. Biol. Chem. 274:13733-6 (1999)) capable of competing with Fas and HveA for binding of FasL and LIGHT, respectively.
One million cells, in 0.1 ml of FACS buffer (PBS, 0.1% BSA, 0.1% NaN₃), were incubated with 0.1-1 microgram of protein or antibody at RT for 15 min. The cells were washed with 3 ml of FACS buffer, reacted with biotinylated primary antibody, and stained with PE-conjugated secondary antibody at RT for 15 min. Cells were then washed again, resuspended in 0.5 microgram/ml of propidium iodide, and live cells were gated and analyzed on a FACScan using the CellQuest software (BD Biosciences).

[4] = system: CB6F1 mice; assay: Parent-into-F1 acute graft-versus-host (in vivo MLR) model; design: species or system mouse; conditions: 3 mg/kg/day i.v. for 5 days
Method: Briefly, CB6F1 mice were injected with 1.5×10^8 pooled spleen cells of C57BL/6 mice administered intravenously on day 0.
The F1 (CB6F1) of C57BL/6×BALB/c mice (H-2^bxd) were transfused intravenously with 1.5×10^8 spleen cells from C57BL/6 mice (H-2^b) on day 0. […] The spleens of the recipient F1 mice were harvested on day 5, weighed and single cell suspensions prepared for in vitro assays.
Splenocytes from normal and the transfused F1 mice were cultured in triplicate in 96-well flat-bottomed plates (4×10^5 cells/200 microliters/well) for 2-4 days. After removing 100 microliters of supernatant per well on the day of harvest, 10 microliters Alamar Blue (Biosource) was added to each well and the cells cultured for additional 4 h. The cell number in each well was assessed according to OD590 nm minus OD530 nm background, using a CytoFluor apparatus (PerSeptive Biosystems). Cytokines in the culture supernatant were measured with commercial ELISA kits from Endogen or R & D Systems following manufacturer's instructions.

[5] = biological target: T3, TNF-gamma-beta (Homo sapiens, UniProt O95150); assay: Coimmunoprecipitation of TNF-gamma-beta by TNFR-Fc proteins; format: binding
T3 construct: made in house; host or cells: 293T cells, transient transfection
T3 sequence (O95150 72-251 limits assumed): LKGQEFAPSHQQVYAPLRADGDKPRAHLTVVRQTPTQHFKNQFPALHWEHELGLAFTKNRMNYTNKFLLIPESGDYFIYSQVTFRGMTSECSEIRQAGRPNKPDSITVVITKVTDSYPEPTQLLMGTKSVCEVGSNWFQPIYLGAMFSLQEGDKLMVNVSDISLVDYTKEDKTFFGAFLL
Text: The beads were then precipitated and washed extensively with PBST buffer (PBS, 0.5% Triton X-100) before boiled in SDS-sample buffer. Proteins were resolved on 4-20% Tris-Glycine gels (NOVEX), transferred to nitrocellulose membranes, and blotted with anti-Flag M2 monoclonal antibody (1 microgram/ml, Sigma) andhorseradish peroxidase (HRP)-conjugated goat anti-mouse IgG antibody (0.5 microgram/ml).

Molecule: TNFR1.Fc: Fc-fusion of TNFR1, control receptor [reference compound]
- inhibition of TNF-gamma-beta activation of NF-κB [1]: not able to inhibit
- inhibition of TNF-gamma-beta activation of NF-κB ([1]; listed as TNFR1-Fc): but not by the addition of Fas-Fc or TNFR1-Fc

Molecule: CCCCCCCCCCCCCC(=O)O[C@@H]1[C@@H](C)[C@@]2(O)[C@@H](C=C(CO)C[C@]3(O)C(=O)C(C)=C[C@@H]23)[C@@H]2C(C)(C)[C@]12OC(C)=O [PMA, reference compound]
- time of peak in expression of TNF-gamma-beta mRNA [2]: 6 h
- TNF-gamma-beta mRNA level [2]: rapidly induced high levels of TNF-gamma-beta mRNA

Molecule: bFGF: growth factor stimulus of HUVEC cells [reference compound]
- TNF-gamma-beta mRNA level [2]: did not significantly affect the expression of TNF-gamma-beta

B1: Fc-fusion form of the extracellular domain of DcR1 (Fc fusion, UniProt O14798 26-221, looked up)
chain: ATTARQEEVPQQTVAPQQQRHSFKGEECPAGSHRSEHTGACNPCTEGVDYTNASNNEPSCFPCTVCKSDQKHKSSCTMTRDTVCQCKEGTFRNENSPEMCRKCSRCPSGEVQVSNCTSWDDIQCVEEFGANATVETPAAEETMNTSPGTPAPAAEETMNTSPGTPAPAAEETMTTSPGTPAPAAEETMTTSPGTPA
notes: extracellular domain; not shown: Fc part of the fusion
- binding result [3]: no binding

B2: Fc-fusion form of the extracellular domain of OX40 (Fc fusion, UniProt P43489 29-214, looked up)
chain: LHCVGDTYPSNDRCCHECRPGNGMVSRCSRSQNTVCRPCGPGFYNDVVSSKPCKPCTWCNLRSGSERKQLCTATQDTVCRCRAGTQPLDSYKPGVDCAPCPPGHFSPGDNQACKPWTNCTLAGKHTLQPASNSSDAICEDRDPPATQPQETQGPPARPITVQPTEAWPRTSQGPSTRPVEVPGGRA
notes: as for B1
- binding result [3]: no binding

B3: IL-1α: cytokine stimulus of HUVEC cells (protein, UniProt P01583 113-271, looked up)
Interleukin-1 alpha: SAPFSFLSNVKYNFMRIIKYEFILNDALNQSIIRANDQYLTAAALHNLDEAVKFDMGAYKSSKDDAKITVILRISKTQLYVTAQDEDQPVLLKEMPEIPKTITGSETNLLFFWETHGTKNYFTSVAHPNLFIATKQDYWVCLAGGPPSITDFQILENQA
- time of peak in expression of TNF-gamma-beta mRNA [2]: 6 h
- TNF-gamma-beta mRNA level [2]: rapidly induced high levels of TNF-gamma-beta mRNA

B4: TL5: another TNF family ligand used here as a control (protein, UniProt O43557 83-240, looked up)
Tumor necrosis factor ligand …: LIQERRSHEVNPAAHLTGANSSLTGSGGPLLWETQLGLAFLRGLSYHDGALVVTKAGYYYIYSKVQLGGVGCPLGLASTITHGLYKRTPRYPEELELLVSQQSPCGRATSSSRVWWDSSFLGGVVHLEAGEKVVVRVLDERLVRLRDGTRSYFGAFMV
- IL-2 production vs buffer group [4]: neither TNF-gamma-beta nor TL5 show any significant effect
- IL-12 production vs buffer group [4]: neither TNF-gamma-beta nor TL5 show any significant effect
- spleen weight vs buffer group [4]: no statistically significant difference from buffer group
- spontaneous (ex-vivo) splenocyte proliferation vs buffer group [4]: no statistically significant difference from buffer group
- GM-CSF production vs buffer group ([4]; splenocytes): no statistically significant difference from buffer group
- INF-gamma production vs buffer group ([4]; splenocytes): no statistically significant difference from buffer group

B5: Fc-fusion form of the extracellular domain of AITR (Fc fusion, UniProt Q9Y5U5 26-162, looked up)
chain: QRPTGGPGCGPGRLLLGTGTDARCCRVHTTRCCRDYPGEECCSEWDCMCVQPEFHCGDPCCTTCRHHPCPPGQGVQSQGKFSFGFQCIDCASGTFSGGHEGHCKPWTDCTQFGFLTVFPGNKTHNAVCVPGSPPAEP
notes: as for B1
- binding result [3]: no binding

B6: Fc-fusion form of the extracellular domain of DcR2 (Fc fusion, UniProt Q9UBN6 56-211, looked up)
chain: ATIPRQDEVPQQTVAPQQQRRSLKEEECPAGSHRSEYTGACNPCTEGVDYTIASNNLPSCLLCTVCKSGQTNKSSCTTTRDTVCQCEKGSFQDKNSPEMCRTCRTGCPRGMVKVSNCTPRSDIKCKNESAASSTGKTPAAEETVTTILGMLASPYH
notes: as for B1
- binding result [3]: no binding

B7: TACI-Fc: extracellular domain of TACI (aa 1-159) fused to Fc of human IgG1 (protein)
chain: MSGLGRSRRGGRSRVDQEERFPQGLWTGVAMRSCPEEQYWDPLLGTCMSCKTICNHQSQRTCAAFCRSLSCRKEQGKFYDHLLRDCISCASICGQHPKQCAYFCENKLRSPVNLPPELRRQRSGEVENNSDNSGRYQGLEHRGSEASPALPGLKLSADQ
modifications: left off: a dimerising Fc or GST
notes: extracellular domain of TACI (aa 1-159) fused to Fc of human IgG1
- immunoprecipitation of TNF-gamma-beta [5]: could not immunoprecipitate FLAG-TNF-gamma-beta

B8: IFNγ: cytokine stimulus of HUVEC cells (protein, UniProt P01579 24-161, looked up)
Interferon gamma: QDPYVKEAENLKKYFNAGHSDVADNGTLFLGILKNWKEESDRKIMQSQIVSFYFKLFKNFKDDQSIQKSVETIKEDMNVKFFNSNKKKRDDFEKLTNYSVTDLNVQRKAIHELIQVMAELSPAAKTGKRKRSQMLFRG
- TNF-gamma-beta mRNA level [2]: did not significantly affect the expression of TNF-gamma-beta

B9: Fas-Fc: extracellular domain of Fas (aa 1-169) fused to Fc of human IgG1 (protein)
chain: QVTDINSKGLELRKTVTTVETQNLEGLHHDGQFCHKPCPPGERKARDCTVNGDEPDCVPCQEGKEYTDKAHFSSKCRRCRLCDEGHGLEVEINCTRTQNTKCRCKPNFFCNSTVCEHCDPCTKCEHGIIKECTLTSNTKCKEEG
modifications: left off: a dimerising Fc or GST
notes: extracellular domain of Fas (aa 1-169) fused to Fc of human IgG1
- immunoprecipitation of TNF-gamma-beta [5]: could not immunoprecipitate FLAG-TNF-gamma-beta
- inhibition of TNF-gamma-beta activation of NF-κB [1]: but not by the addition of Fas-Fc or TNFR1-Fc

B10: TNFR1-Fc (Fc fusion, UniProt P19438 30-211, looked up)
chain: LVPHLGDREKRDSVCPQGKYIHPQNNSICCTKCHKGTYLYNDCPGPGQDTDCRECESGSFTASENHLRHCLSCSKCRKEMGQVEISSCTVDRDTVCGCRKNQYRHYWSENLFQCFNCSLCLNGTVHLSCQEKQNTVCTCHAGFFLRENECVSCSNCKKSLECTKLCLPQIENVKGTEDSGTT
notes: extracellular domain; also called Fc-fusion form of the extracellular domain of TNFR1; not shown: Fc part of the fusion
- binding result [3]: no binding

B11: Fc-fusion form of the extracellular domain of RANK (Fc fusion, UniProt Q9Y6Q6 30-212, looked up)
chain: IAPPCTSEKHYEHLGRCCNKCEPGKYMSSKCTTTSDSVCLPCGPDEYLDSWNEEDKCLLHKVCDTGKALVAVVAGNSTTPRRCACTAGYHWSQDCECCRRNTECAPGLGAQHPLQLNKDTVCKPCLAGYFSDAFSSTDKCRPWTNCTFLGKRVEHHGTEKSDAVCSSSLPARKPPNEPHVYLP
notes: as for B1
- binding result [3]: no binding
